Tested on: MS2 coat protein
Assay: apparent KD of MS2 coat protein; designed switch direction (-1 OFF switch, 1 ON switch): -1; higher = weaker reporter binding
Procedure, shortened: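 Apparent KD, taken as the median over clusters for each design, was obtained by curve-fitting normalised cluster fluorescence. Designed RNA switches had been transcribed on Illumina chips by stalled E. coli RNA polymerase and titrated with SNAP-549-labelled MS2 coat protein, doubling from 0.7 or 1.5 nM to 3 µM.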

[1] = Eterna round: R95, input ligand: microRNA oligo, concentration not stated
[2] = Eterna round: R95, input ligand: FMN 200 uM
[3] = Eterna round: R95, input ligand: none
[4] = input ligand: microRNA oligo, concentration not stated

Sequence | apparent KD of MS2 coat protein (input ligand: FMN 200 uM) | apparent KD of MS2 coat protein (input ligand: none) | apparent KD of MS2 coat protein [1] | apparent KD of MS2 coat protein [2] | apparent KD of MS2 coat protein [3] | apparent KD of MS2 coat protein [4]
GGAUCACAUGUUAGGAUAUGCAGGUCCUUGGAUCUGCAGAAGGGACAUGAGGAUCACCCAUGUCAUGAAGAUCC [Mat - Exclusion 4 - Eli Mod - D52] (Eterna round: R97, puzzle: Brourd's mod of Exclusion 4) | 43.4 nM | 21 nM |  |  |  | 
GCACUGACAGGAUAUACAUGAGGAUCACCCAUGUGACCCUUGGAGUACUCGCGUACUCGUAGAAGGGUCUGUGC [Omei Ex3 Model Bachelor's Dilema v37] (Eterna round: R97, puzzle: Exclusion 3) | 95.8 nM | 35.9 nM |  |  |  | 
AUAUCAAGCAAGGAUAUGCAAAUGGUUAUUUAUGCAGAAGGUGCAACAUGAGGAUCACCCAUGUUUCUGGGUUU [JR_E6_Sub049] (puzzle: Exclusion 6) |  |  | 48.2 nM |  |  | 
UUUUCUUUUGUGAGGAUAUACUUCUUUUUCUUUUUGUAGAAGGCACAUGAGGAUCACCCAUGUUUUCUUUUCUC [JR_BME4_Sub028] (puzzle: Brourd's mod of Exclusion 4) |  |  | 13.7 nM |  |  | 
GGUCAAGAACAGCUCCGCGCUGCCCUCGACCGCUCAUUUACAUGAGGAUCACCCAUGUUUUUUGCUUGUCUUGUUAC [Usvetive] (puzzle: Sensor v3, turn-off variant 2) |  |  | 91.8 nM | 16.9 nM | 16.5 nM | 
AAAACUGCCUAGGAUAUCUGAAGCCGAGGUAGAAGAGAAGGAGGCACAUGAGGAUCACCCAUGUCCCUCAUAAA [EX6 A.8] (Eterna round: R97, puzzle: Exclusion 6) | 16.8 nM | 14.3 nM |  |  |  | 
CUCCUCGCUUAGGAUAUGUACACUUGCACCGUGACAGAAGGAAGCACUUGAGGAUCACCCAAGUGCCAGGGUGC [Geena] (Eterna round: R97, puzzle: Exclusion 6) | 14.4 nM | 16.7 nM |  |  |  | 
AGGUCACAUGAGGAUCACCCAUGUGAGGAUAUUUACUCAAGAGCUUCGGCUCUCAAGUGAAGAAGGCGCAAUGA [EX1 #53] (Eterna round: R97, puzzle: Exclusion 1) | 34.6 nM | 32.8 nM |  |  |  | 
AAAUUUGGAGGAUAUCCAUUGGGAAACAUGAGGAUCACCCAUGUAAUAAAAGGGAAAUCCGGAGAAGGCCAAAUUU [-20.39, -19.1 kcal, 39% A] (Eterna round: R97, puzzle: Exclusion 5) | 45.7 nM | 19.1 nM |  |  |  | 
ACAUGAGGAUCACCCAUGUUUUUCGGGUACUCUUUUUACAGCAAGGAUAUGCAUUAUUUUUUUACGCAGAAGGUGCUUUACGUC [JR_ExcNG3_Sub066] (Eterna round: R96, puzzle: Exclusion NG 3) |  |  |  |  |  | 116 nM
AUAUCGUGAGGAUAUCCAAUAUAUGACAUGAGGAUCACCCAUGUUUCCACUCGUACCUCCGGAGAAGGCACAGUUU [Ex5 #71] (Eterna round: R97, puzzle: Exclusion 5) | 22.4 nM | 32.2 nM |  |  |  | 
AGAUGGCGAGGAUAUACAUGAGGAUCACCCAUGUGAGAGAAAAGAGUGAGGAAGAAAAGUAGAAGGCGCUGUCA [Mat - Exclusion 3 - Mod of Salish D17] (puzzle: Exclusion 3) |  |  | 71 nM |  |  | 
AAGAAACAUGAGGAUCACCCAUGUGAGGAUAUGAGCACGCCGGUGACGGUGAUAAGAAUCAGAAGGCACAAAGG [JL-ex1-4.34 salish99 mod] (Eterna round: R97, puzzle: Exclusion 1) | 93 nM | 77.8 nM |  |  |  | 
UACGAAGAGUGAGGAUAUGUGCGACAAAGUUGCACAGAAGGCACAUGAGGAUCACCCAUGUGAGCUAGGUCGAAAGACCUAGCG [Omei Exc(NG)1 Av6] (Eterna round: R96, puzzle: Exclusion NG 1) | 37 nM | 19.7 nM |  |  |  | 13.6 nM
UGUCAGUCAGGAUAUGCAUACGUAGACAUGAGGAUCACCCAUGUGACGUGGGCCUGGUGUGUAGAAGGGACGAACA [EX5 #80] (Eterna round: R97, puzzle: Exclusion 5) | 48.5 nM | 19.5 nM |  |  |  | 
ACAUGAGGAUCACCCAUGUGAAAAGAAUGGCUGACACAGAGAUAGGAUAUAUGUGCAUAUCUAACGUAGAAGGGUCAUGACUGG [Deportation 78 - Jieux - Exclusion NG 3] (Eterna round: R96, puzzle: Exclusion NG 3) |  |  |  |  |  | 26.5 nM
GUAUAACUACACGGGCUCAACAUGAGGAUCACCCAUGUCACAUACGCAAGCUUUUUGCUUGUCUUAUCUGUCCGUGA [Quleorraa] (puzzle: Sensor v3, turn-off variant 1) |  |  | 11.9 nM | 12.3 nM | 10.7 nM | 
AGAAAUGCCCGUGACCACAAGCUUUUUGCUUGUCUUACUACAUGAGGAUCACCCAUGUAACAUGGGCUCCUGACAAU [Maleisar] (puzzle: Sensor v3, turn-off variant 2) |  |  | 9.6 nM | 14.7 nM | 12.5 nM | 

Sequence | apparent KD of MS2 coat protein (input ligand: FMN 200 uM) | apparent KD of MS2 coat protein (input ligand: none) | apparent KD of MS2 coat protein [1] | apparent KD of MS2 coat protein [2] | apparent KD of MS2 coat protein [3] | apparent KD of MS2 coat protein [4]
GAGCCAUCGUGAGAUGGCUCAAUUACAUGAGGAUCACCCAUGUAGGAUAUCGAUUGCUUUGCAGUCGAGAAGGACAUGUUUAAU [JL ENG3 3.00] (Eterna round: R96, puzzle: Exclusion NG 3) | 67.4 nM | 30.3 nM |  |  |  | 25.8 nM
GCCCGGCGUGUAGGAUAUGGUUCCGUUUCGGUUCCAGAAGGACAUGAGGAUCACCCAUGUGCCUGUCGUCGGUCGUCACCGGGC [salish99_ExNG1_r04_401] (Eterna round: R96, puzzle: Exclusion NG 1) | 11.1 nM | 12.4 nM |  |  |  | 9.87 nM
UGAUCUAGCGGAGGAUAUACAUGAGGAUCACCCAUGUAUAGGCCAUCUGGUGACAGGUGGAACAUGUAGAAGGCCGCUAGAUCU [JL ENG2 3.81] (Eterna round: R96, puzzle: Exclusion NG 2) | 35.9 nM | 13.9 nM |  |  |  | 9.54 nM
AGAUGCUCGAGUCAACAUGAGGAUCACCCAUGUACAGUUAAUGAGGAUAUCUGAGACAAAUAGUAGGAGAAGGCGUGAACAUGA [Ex NG3 #12] (Eterna round: R96, puzzle: Exclusion NG 3) | 32.1 nM | 39.6 nM |  |  |  | 69 nM
GAAAAGGUAGGAUAUACGAGAAAAAAGGGUAGAAAAAAAACACAUGAGGAUCACCCAUGUAGAAGGACCAAAAG [salish99_ex2_r3_029] (puzzle: Exclusion 2) |  |  | 23.1 nM | 35.5 nM | 21.3 nM | 
UUUAAUUUUUUUUUUUUACAAGCUUUUUGCUCGUCUUAUACAUGAGGAUCACCCAUGUGGGUGAAAAGUAAAUUAUC [JMF 44] (puzzle: Sensor v3, turn-off variant 2) |  |  | 18.7 nM | 22.4 nM | 33.1 nM | 
CCAAGCUUAUUCAUUAACCACAUGAGGAUCACCCAUGUAUAGGCAAUUAUGACUGGGCUCUUUGGUGCUCGUCUUAU [Sensor-V1 #26] (Eterna round: R97, puzzle: Sensor, turn-off variant 1) | 11.5 nM | 11.7 nM |  |  |  | 
UAUAUGUCAGGAUAUUAGUAGUAAAUGAAUAAAAUUAUUACUGAGAAGGGACAUGAGGAUCACCCAUGUGCCUC [Mat - Exclusion 4 - Eli Mod - D24] (Eterna round: R97, puzzle: Exclusion 4) | 387 nM | 37.4 nM |  |  |  | 
UCGCUCCGUGUAGGAUAUCGCCGUACCACUCGGCGAGAAGGACAUGAGGAUCACCCAUGUAUGUUAUUAUCACGUGUGGCGCGC [Design 52] (Eterna round: R96, puzzle: Exclusion NG 1) | 33.5 nM | 18.7 nM |  |  |  | 19 nM
GCACCGCGAGGAUAUACAUGAGGAUCACCCAUGUGUCCGCAGCGAUGUGUGUACAAAUGUAGAAGGCGCGUAAA [EX3 #60] (Eterna round: R97, puzzle: Exclusion 3) | 21.5 nM | 12.1 nM |  |  |  | 
UACUAAAAGGAGGAUAUCGUAUCGGAAACGAUACGAGAAGGCUUAACAUGAGGAUCACCCAUGUUCUUCAAUAA [Mat - Exclusion 6 - Eli Mod - D88] (puzzle: Exclusion 6) |  |  | 17.3 nM | 24.6 nM | 16.4 nM | 
AAUAUGUGAGGAUAUUAGUUGUACGUCAAUAGACGUAUAAGUGAGAAGGCACAUGAGGAUCACCCAUGUUCCUG [Omei Ex4 Mod of Mat's R95 mod of Omei v3] (Eterna round: R97, puzzle: Exclusion 4) | 98.2 nM | 23.7 nM |  |  |  | 
CCUCCACAUGAGGAUCACCCAUGUCAGGAUAUCGUGUGCGCGUUUUCGGUCUUUCGCGCGAGAAGGGACGACUG (puzzle: Exclusion 1) |  |  | 24.7 nM |  |  | 
AAGAACGUAGGAUAUACAUGAGGAUCACCCAUGUGAGGAAGGAGUAGGAAGUGUGGAAGUAGAAGGACGGAGAG [JR_Exclu3_Sub076] (puzzle: Exclusion 3) |  |  | 35.4 nM | 31.5 nM | 33.8 nM | 
UAACAUCUGAUUCUUGAGAUACAUGAGGAUCACCCAUGUUCACAGGAUAUUGAUUUUAAGAAAAGCAAGAAGGGUGAAUCAUUU [JR_ExcNG3_Sub042] (Eterna round: R96, puzzle: Exclusion NG 3) | 34.1 nM | 20.7 nM |  |  |  | 19 nM
AUUGAUGUUGAGGAUAUGCUUUUAUUUAUAAUAGCAGAAGGCGAUACAUGAGGAUCACCCAUGUUCAUGGUAGU [JR_E6_Sub095] (puzzle: Exclusion 6) |  |  | 50.4 nM |  |  | 
CCGGAAAUAGAGGAUAUCGUACUGGAUACAGUACGAGAAGGCUAUACAUGAGGAUCACCCAUGUGUCCUACCGG [Fiskers Ex 6 - 61] (puzzle: Exclusion 6) |  |  | 16.1 nM |  |  | 

From the supplement of paper PMC9170038
